Results on two substances are retold here after PMC5575768.

The assay has as its target filamentous actin from rabbit skeletal muscle (rabbit) (UniProt P68135). The assay is described as follows: differential scanning calorimetry. In general terms: Differential scanning calorimetry records heat flow against a reference as temperature is scanned.

As to “α-tropomyosin D230N, with N-terminal ala-ser (natural protein)”, the melt temperature of the Tm–actin interaction was 47.9 °C.
In turn, “α-tropomyosin, wild type, with N-terminal ala-ser (natural protein)” yielded a melt temperature of the Tm–actin interaction of 47.2 °C and a melt temperature of the Tn–Tm–actin interaction (Tn with cTnT R92L) of 47.3 °C.
